Earlier results on 1 substance are cited in publication PMC4010523.

This data set addresses complement C5 (Homo sapiens) (UniProt P01031).

In general, Kd refers to the constant that tells how readily two partners part at equilibrium. Turning to Eculizumab, the Kd is 120 pM.
